Experimental data published in patent US6602687B1, “DNA encoding human ciliary neurotrophic factor and method for producing the protein encoded thereby” (Regeneron Pharmaceuticals, Inc., priority 1989, dated 2003).

How the values were obtained:
Assay type in all cases: cell-based
[1] = tested on: Ventral spinal cord neurons; experiment: E14 rat ventral spinal cord neuron cultures in defined medium; details: CNTF 2 μl/ml
Source text: Sprague-Dawley rats (HSD) were used for all experiments. Pregnant rats were sacrificed by carbon dioxide asphyxiation, and the embryos were rapidly removed and placed in ice-cold Puck's saline G for further dissection.
Spinal cords were removed aseptically from rat embryos on the 14th day of gestation. The spinal cord was severed caudal to the bulb, freed of sensory ganglia and meninges. The cord was then subdivided into ventral and mediodorsal segments for separate cultures. The cord tissues were minced into small pieces and mechanically dissociated by trituration through a Pasteur pipet in defined culture medium consisting of 50% basal medium Eagle (BME; Gibco) and 50% Ham's nutrient mixture F12 (Gibco) supplemented with glucose (33 mM), glutamine (2 mM, NaHCO3 (15 mM), HEPES (10 mM), insulin (25 μg/ml), transferrin (100 μg/ml) putrescine (60 μM), progesterone (20 nM), Na selenite (30 nM), penicillin G (0.5 μg/ml), streptomycin (0.5 μg/ml), and bovine serum albumin (2.5 μg/ml). Trituration was repeated twice and the supernatants were pooled and filtered through a nylon (Nitex, Tetko) filter (40 μm). Total cell number yielded was determined by hemocytometer counting in the presence of trypan blue. Dissociated ventral cells were then plated at a density of 0.5 million cells/35 mm dish coated with poly-D-lysine (10 μg/ml). Dissociated mediodorsal cells were plated at a density of 1.5 million/35 mm dish coated with poly-D-lysine (10 μg/ml), poly-L-ornithine (10 μg/ml), or poly-L-ornithine with laminin (5 μg/ml). Treatments to these cultures were added at the time of plating. Cultures were maintained at 37° C. in a 95% air/5% CO2 atmosphere at nearly 100% relative humidity. Culture medium was changed every three to four days.

[2] = tested on: E18-19 rat hippocampal neurons; experiment: Neurofilament protein in hippocampal cultures
Protocol: (§1) Hippocampi were dissected from E18-19 rat embryos of Sprague-Dawley rats, and collected in F10 medium. The tissues were minced, rinsed twice with F10 medium (Gibco) and trypsinized with 0.25% trypsin (Gibco) for 20 minutes at 37° C. Trypsin was inactivated by the addition of a serum-containing medium composed of minimal essential medium (MEM) supplemented with fetal calf serum (FCS, 10%), glutamine (2 mM), penicillin (25 U/ml) and streptomycin (25 ug/ml). Dissociated cells obtained by gentle trituration were collected and centrifuged at low speed (500 rpm) for 30 seconds. The centrifugation was repeated twice, and the cell pellets were then resuspended in serum-containing medium. The cells were then plated onto 6 mm wells or 35 mm dishes that were coated with polyornithine (10 ug/ml) and laminin (10 ug/ml). In most of the experiments, the cells were plated at a low density of approximately 71,000 cells/cm^2. Five to six hours following the plating of cells, medium was changed to a serum-free medium containing 1% N3 and penicillin-streptomycin (25 units/ml and 25 ug/ml, respectively), at which time CNTF was added. Medium was changed every three to four days, with re-addition of the factor.
Neurofilament protein was quantitated according to the method of Doherty et al. (1984, J. Neurochem. 42:1115-1122), as is described in Section 14.1.3.
The CNTF used in all assays was recombinant rat CNTF, expressed and purified as described in Example Section 12 supra.

[3] = tested on: E18-19 rat hippocampal neurons; experiment: Counts of NSE-, GAD-, calbindin- and acetylcholinesterase-positive cells in hippocampal cultures
Protocol: as §1
Cells were fixed with 4% paraformaldehyde for 30 minutes at room temperature, washed with PBS. For GAD staining, cells were permeabilized by sequential rinsing with 50%, 70% and 50% ethanol. The cultures were blocked by sequential rinsing with PBS containing 5% normal rabbit serum for one hour, and incubated with sheep anti-GAD antibody 1440 at a 1:6000 dilution) overnight at 4° C. Following three rinses with PBS, cells were then incubated with biotinylated rabbit anti-sheep antibody at a 1:400 dilution for at least 90 minutes at room temperature. For GABA staining, cells were permeabiized with Triton X-100 (0.25%) in Tris-HCl (0.1M, pH 7.3), and blocked with 10% normal goat serum for 90 minutes, prior to incubation with rabbit anti-GABA antibody (1:5000) ovenight at 4° C. Following three rinses with PBS, cells were then incubated with biotinylated goat anti-rabbit antibody at a 1:200 dilution for at least 90 minutes at room temperature. GAG- or GABA imminoreactive cells were visualized by using the Vectastain ABC kit (Vector Labs).
Following fixing with 4% paraformaldehyde, cells were blocked with 10% normal goat serum (NGS) in PBS containing 0.1% Triton X-100. The cells were then incubated with the primary antibody (rabbit anti-NSE, 1:5000) overnight at 4° C. The cells were then incubated with the secondary antibody (goat anti-rabit, 1:200 dilution) for at least 90 minutes at room temperature. NSE-immunopositive cells were visualized using the Vectastain ABC kit (Vector Labs).
Cells were rinsed twice with PBS, and fixed with 4% paraformaldehyde for 30 minutes at room temperature. […]

[4] = recombinant rat CNTF 10 ng/ml, 8 days

B1: CNTF: ciliary neurotrophic factor; recombinant rat CNTF in Sections 10, 15, 17, purified rat sciatic nerve CNTF in Section 11; see endpoint conditions (protein, UniProt P20294 1-200, looked up)
Ciliary neurotrophic factor: MAFAEQTPLTLHRRDLCSRSIWLARKIRSDLTALMESYVKHQGLNKNINLDSVDGVPVASTDRWSEMTEAERLQENLQAYRTFQGMLTKLLEDQRVHFTPTEGDFHQAIHTLMLQVSAFAYQLEELMVLLEQKIPENEADGMPATVGDGGLFEKKLWGLKVLQELSQWTVRSIHDLRVISSHQMGISALESHYGAKDKQM
Which results are given for B1?
time ventral neurons survive in defined medium [1]: > 1 week; CAT Activity ([1]; NGF 50 ng/ml at plating, day 7): 959.5 ± 24.32 CPM/dish; Protein ([1]; NGF 50 ng/ml at plating, day 7): 45 μg/dish; effect on neurofilament protein, CNTF added on the third day and cells treated for 8 days ([2]; CNTF 10 ng/ml): much reduced; CNTF-induced increase in neurofilament protein, addition delayed by 3 days ([2]; CNTF 10 ng/ml, measured on the eighth day): similarly diminished; maximal increase in neurofilament protein ([2]; recombinant rat CNTF 10 ng/ml, day 8): approximately 5 fold; concentration at which neurofilament protein reaches a plateau ([2]; recombinant rat CNTF, 8 days): 0.1 ng/mL; increase in number of GAD-positive neurons [3, 4]: 2.3 fold; increase in number of NSE-positive neurons [3, 4]: 2.2 fold; increase in calbindin-immunopositive cells ([3]; recombinant rat CNTF 10 ng/ml, low-density cultures): 3 fold; increase in number of acetylcholinesterase positive cells versus controls ([3]; recombinant rat CNTF, after 8 days in culture): approximately 17 fold
